Here are results for eight molecules from patent US9817004B2, “Development and use of cysteine-labeled fluorescent probes of unbound analytes” (priority 2008, dated 2017).

What is called Kd is the constant that tells how readily two partners part at equilibrium.

The nature of test [1]: Fluorescence emission spectra with increasing oleic acid. The settings on record: acrylodan labeled; 22° C., Ex=386 nm. It is filed as binding. As for the experimental part:
FIGS. 1A-1C show Fluorescence spectra with increasing oleic acid at 22° C. Ex=386 nm.
This is an example of the type of fluorescence response that is a necessary characteristic of a probe. […] This example illustrates that altering specific sites can yield effective probes.

The nature of test [2]: FFAu response-profile screening of probes (FFA specificity). It is filed as binding. The settings on record: cysteine labeled with acrylodan at pH 7.0; FFA to which probe has improved specificity. As for the experimental part: In some embodiments, aliquots of the probes prepared as described above are placed in multi-well plates, suitable for fluorescence measurements. Defined amounts of unbound analytes are added to each well and a fluorescence signal from the wells containing probe and analytes are compared to wells containing only the probe. The values obtained are compared with those of a ‘reference’ probe. The analytes may be fatty acids or other unbound metabolites. Preferably, the number of wells in the multiwell plate is between 1 and 1536. […] For many analytes it is important that they be added to each well in complex with a carrier molecule, for example albumin, to buffer the unbound analyte and thereby clamp its concentration to well defined values. Clamping ensures that the concentration of analyte in the aqueous phase in the well is unaffected by binding to the surfaces of the well or the probes themselves. Clamping is essential for discovery of probes because analytes have different solubilities and therefore different affinities for surfaces. Highly insoluble analytes added without proper clamping may bind to the surfaces and be unavailable for binding to the probe. In this example the probe might incorrectly give the appearance of no response to the insoluble analyte. Thus to determine the correct response profile (specificities) for each probe each analyte's concentration must be clamped.
The fluorescence intensity ratio (“R” value) for a given probe is determined. The ratio is calculated using the following formula: R=Fλ1/Fλ2 wherein, Fλ1 is the measured fluorescence intensities (intensity of the probe with the analyte present minus intensity of the analyte without probe present) at wavelength 1 and Fλ2 is the measured fluorescence intensities (intensity of the probe with the analyte present minus intensity of the analyte without probe present) at wavelength 2. Then, for a given probe, ΔR, the difference in R value between the measurement in the presence of each analyte and in the absence of each analyte, is calculated as follows: ΔR=R+analyte−R0 The ΔR value for a given probe is then compared to a reference probe, for example, ADIFAB or ADIFAB2, by ΔR/ΔRreferenee. This value is an indication of how dissimilar the new probe (derived by mutation of the template) is to the reference. By this method, probes with new and useful characteristics may be identified. Measurements of fluorescence intensities are obtained using standard techniques.
More than 40 libraries of cysteine-labeled mutant probes, using templates derived from SEQ ID NO: 5, with the number of different mutant probes in the various libraries ranging from 2000 to 2,000,000 have been generated using the methods described in U.S. Pat. No. 7,601,510, incorporated herein by reference. […]

Test [3] is described as follows: Bilirubin binding isotherm of dual fluorophore ratio probes (I608/I525). An excerpt: FIGS. 7A-7B show Bilirubin binding isotherms for two dual fluorophore bilirubin ratio probes synthesized by labeling with acrylodan and Texas red.
Because such fluorescent proteins may have other valuable characteristics it would be important to be able to convert such fluorescent proteins into probes, i.e. so that they respond to analyte binding by a change in ratio. This can be accomplished by introducing a second but different fluorophore at a different site so that either the fluorescence of the second fluorophore is insensitive or responds differently to analyte binding. In addition, the fluorescence index of second fluorophore should be measured at a distinct wavelength from the first fluorophore. […] To convert this to a fluorescence ratio probe, site specific mutagenesis was used to generate a new mutein (L2P14F7-MGCFD) in which the N-terminal alanine residue of the mature L2P14F7 mutein was replaced with glycine-cysteine. Thus, the N-terminus of the mature L2P14F7-MGCFD mutein has the sequence glycine-cysteine-phenylalanine-aspartate instead of alanine-phenylalanine-aspartate, as in the L2P14F7 template. This substitution is designated in the clone name as “MGCFD” and is sometimes described as an “N-terminal MGCFD linker”. Then L2P14F7-MGCFD was reacted with Texas Red (TR) maleimide at pH 6 under which conditions only the cysteine was labeled. […]

B1: ADIFAB: rat intestinal FABP (SEQ ID NO:2) labeled with acrylodan at lysine 27 (protein, listed as Rattus norvegicus)
chain: AFDGTWKVDRNENYEKFMEKMGINVVKRKLGAHDNLKLTITQEGNKFTVKESSNFRNIDVVFELGVDFAYSLADGTELTGTWTMEGNKLVGKFKRVDNGKELIAVREISGNELIQTYTYEGVEAKRIFKKE
modifications: acrylodan label at K27; PEPTIDE (1)...(131) wild-type rat intestinal fatty acid binding protein; …ON (1)...(1)
Take B1: the “fluorescence response upon FFA binding (spectral shift / ratio response)” value in test [1] is listed as “red shift in its fluorescence emission spectrum upon binding FFA”.

B2: V26C K27A: SEQ ID NO:2 with lysine 27 mutated to alanine, valine 26 to cysteine, cysteine labeled with acrylodan (protein, listed as Rattus norvegicus)
chain: AFDGTWKVDRNENYEKFMEKMGINVCARKLGAHDNLKLTITQEGNKFTVKESSNFRNIDVVFELGVDFAYSLADGTELTGTWTMEGNKLVGKFKRVDNGKELIAVREISGNELIQTYTYEGVEAKRIFKKE
modifications: acrylodan label on cysteine 26; PEPTIDE (1)...(131) wild-type rat intestinal fatty acid binding protein; …ON (1)...(1)
Turning to B2, the “fluorescence response upon FFA binding (spectral shift / ratio response)” value in test [1] is “yields a ratio response upon FFA binding”.

B3: K27C: lysine 27 of SEQ ID NO:2 mutated to cysteine and the cysteine labeled with acrylodan (protein, listed as Rattus norvegicus)
chain: AFDGTWKVDRNENYEKFMEKMGINVVCRKLGAHDNLKLTITQEGNKFTVKESSNFRNIDVVFELGVDFAYSLADGTELTGTWTMEGNKLVGKFKRVDNGKELIAVREISGNELIQTYTYEGVEAKRIFKKE
modifications: acrylodan label at C27; PEPTIDE (1)...(131) wild-type rat intestinal fatty acid binding protein; …ON (1)...(1)
For B3, the “fluorescence response upon FFA binding (spectral shift / ratio response)” value in test [1] is recorded as “without the necessary spectral shift to yield a ratio probe”.

B4: L61P8B12: 8I 14L 18L 23L 27Y 30C 31V 53I 55W 72G 74A 78V 82V 91Y 93M 102V 106W 115W 117L 131D (protein, listed as Rattus norvegicus)
chain: AFDGTWKIDRNENLEKFLEKMGLNVVYRKCVAHDNLKLTITQEGNKFTVKESINWRNIDVVFELGVDFAYSGAAGTEVTGTVTMEGNKLVYKMKRVDNGKEVIAVWEISGNELIWTLTYEGVEAKRIFKKDRGHHHHHH
modifications: acrylodan label on cysteine; MUTAGEN (131)...(131) rat intestinal fatty acid binding protein with Glu 131 to Asp subsitition.; COOH-terminal affinity tag comprising Arg132, Gly133 and 6 histidines
notes: 8I 14L 18L 23L 27Y 30C 31V 53I 55W 72G 74A 78V 82V 91Y 93M 102V 106W 115W 117L 131D
Regarding B4, the Specificity result in test [2] is “POA”.

B5: L68P3H10: 18L 23A 27C 31N 33N 55Q 72W 73T 74L 76I 106A 115E 117V 131D (protein, listed as Rattus norvegicus)
chain: AFDGTWKVDRNENYEKFLEKMGANVVCRKLNANDNLKLTITQEGNKFTVKESSNQRNIDVVFELGVDFAYSWTLGIELTGTWTMEGNKLVGKFKRVDNGKELIAVAEISGNELIETVTYEGVEAKRIFKKDRGHHHHHH
modifications: acrylodan label on cysteine; MUTAGEN (131)...(131) rat intestinal fatty acid binding protein with Glu 131 to Asp subsitition.; COOH-terminal affinity tag comprising Arg132, Gly133 and 6 histidines
notes: 18L 23A 27C 31N 33N 55Q 72W 73T 74L 76I 106A 115E 117V 131D
Turning to B5, in test [2], the Specificity entry is listed as “DHA”.

B6: L2P14F7: bilirubin specific fluorescent protein, the M18G,G31M mutation of SEQ ID NO 4, labeled with acrylodan at lysine 27 (protein, listed as Rattus norvegicus)
chain: AFDGTWKVDRNENYEKFGEKMGINVVKRKLMAHDNLKLTITQEGNKFTVKESSNFRNIDVVFELGVDFAYSAADGTELTGTWTMEGNKLVGKFKRVDNGKELIAVREISGNELIQTYTYEGVEAKRIFKKDRGHHHHHH
modifications: acrylodan label at lysine 27; MUTAGEN (72)...(72) rat intestinal fatty acid binding protein with alanine substitution for leucine at position 72 and Glu 131 to Asp subsitition.; COOH-terminal affinity tag comprising Arg132, Gly133 and 6 histidines
With B6, the analyte specificity entry in test [3] (labeled with acrylodan at lysine 27) is given as “bilirubin specific”. For the same molecule, the Kd in test [3] (single site equilibrium binding, ratio I608/I525, excited at 375 nm) is around 80 nM.

B7: L50BP9D5: acrylodan cysteine-labeled rI-FABP mutein; 18L 21F 23L 27C 31N 72S 73T 74A 76I 117N 131D (protein, listed as Rattus norvegicus)
chain: AFDGTWKVDRNENYEKFLEKFGLNVVCRKLNAHDNLKLTITQEGNKFTVKESSNFRNIDVVFELGVDFAYSSTAGIELTGTWTMEGNKLVGKFKRVDNGKELIAVREISGNELIQTNTYEGVEAKRIFKKDRGHHHHHH
modifications: acrylodan label on cysteine; MUTAGEN (131)...(131) rat intestinal fatty acid binding protein with Glu 131 to Asp subsitition.; COOH-terminal affinity tag comprising Arg132, Gly133 and 6 histidines
notes: acrylodan cysteine-labeled rI-FABP mutein; 18L 21F 23L 27C 31N 72S 73T 74A 76I 117N 131D
Consider B7, for which, in test [2], the Specificity entry is listed as “PA/POA”.

B8: L10P7A4-L30C: acrylodan cysteine-labeled rI-FABP mutein; SEQ ID 5 mutations 14L 18L 27A 30C 31Y 72A 73L 117A 131D (protein, listed as Rattus norvegicus)
chain: AFDGTWKVDRNENLEKFLEKMGINVVARKCYAHDNLKLTITQEGNKFTVKESSNFRNIDVVFELGVDFAYSALDGTELTGTWTMEGNKLVGKFKRVDNGKELIAVREISGNELIQTATYEGVEAKRIFKKDRGHHHHHH
modifications: acrylodan label at C30; MUTAGEN (131)...(131) rat intestinal fatty acid binding protein with Glu 131 to Asp subsitition.; COOH-terminal affinity tag comprising Arg132, Gly133 and 6 histidines
B8: the Specificity entry in test [2] is recorded as “DHA”.
